In patent US20230002480A1:

Experiments:
Test in all cases: cell-based or functional assay
[1] = target: HIV-1 Env pseudovirus 89-F1_2_25 (HIV-1)
[2] = target: HIV-1 Env pseudovirus 3103.v3.c10 (HIV-1)
[3] = target: HIV-1 Env pseudovirus T250-4 (HIV-1)
[4] = target: HIV-1 Env pseudovirus R3265.c06 (HIV-1)
[5] = target: HIV-1 Env pseudovirus BJOX028000.10.3 (HIV-1)
[6] = target: HIV-1 Env pseudovirus 9004SS_A3_4 (HIV-1)
[7] = target: HIV-1 Env pseudovirus 211-9 (HIV-1)
[8] = target: HIV-1 Env pseudovirus 6041.v3.c23 (HIV-1)
[9] = target: HIV-1 Env pseudovirus 6540.v4.c1 (HIV-1)
[10] = target: HIV-1 Env pseudovirus T257-31 (HIV-1)
[11] = target: HIV-1 Env pseudovirus X1632_S2_B10 (HIV-1)
[12] = target: HIV-1 Env of pseudovirus 1006_11_C3_1601 (clade B (T/F)) (HIV-1)
[13] = target: HIV-1 Env of pseudovirus ZM109F.PB4 (clade C) (HIV-1)
[14] = target: HIV-1 Env of pseudovirus Du172.17 (clade C) (HIV-1)
[15] = target: HIV-1 Env of pseudovirus MS208.A1 (clade A) (HIV-1)
[16] = target: HIV-1 Env of pseudovirus CAP45.2.00.G3 (clade C) (HIV-1)
[17] = target: HIV-1 Env of pseudovirus ZM197M.PB7 (clade C) (HIV-1)
[18] = target: HIV-1 Env of pseudovirus 6240_08_TA5_4622 (clade B (T/F)) (HIV-1)
[19] = target: HIV-1 Env of pseudovirus ZM53M.PB12 (clade C) (HIV-1)
[20] = target: HIV-1 Env of pseudovirus WEAU_d15_410_787 (clade B (T/F)) (HIV-1)
[21] = target: HIV-1 Env of pseudovirus REJO4541.67 (clade B) (HIV-1)
[22] = target: HIV-1 Env of pseudovirus Ce2060_G9 (clade C (T/F)) (HIV-1)
[23] = target: HIV-1 Env of pseudovirus CNE52 (clade BC) (HIV-1)
[24] = target: HIV-1 Env of pseudovirus SC05_8C11_2344 (clade B (T/F)) (HIV-1)
[25] = target: HIV-1 Env of pseudovirus CNE19 (clade BC) (HIV-1)
[26] = target: HIV-1 Env of pseudovirus 1012_11_TC21_3257 (clade B (T/F)) (HIV-1)
[27] = target: HIV-1 Env of pseudovirus ZM247v1(Rev-) (clade C (T/F)) (HIV-1)

In the case of N49P9.1 (antibody), the IC50 [1] is reported as > 50 µg/mL, the IC80 [1] is reported as > 50 µg/mL and the MPI [1] is reported as 23. The IC50 [2] was > 50 µg/mL, the IC80 [2] was > 50 µg/mL and the MPI [2] was 45. For the same substance, the IC50 [3] was > 50 µg/mL, the IC80 [3] was > 50 µg/mL and the MPI [3] was 7. It also gave an IC50 [4] of 0.469 µg/mL, an IC80 [4] of 1.62 µg/mL and an MPI [4] of 100. It also gave an IC50 [5] of 0.04 µg/mL, an IC80 [5] of 0.2 µg/mL and an MPI [5] of 100. For the same substance, the IC50 [6] was 0.323 µg/mL, the IC80 [6] was 1.13 µg/mL and the MPI [6] was 100. For the same substance, the IC50 [7] was 0.17 µg/mL, the IC80 [7] was 0.579 µg/mL and the MPI [7] was 100. The IC50 [8] was 0.282 µg/mL, the IC80 [8] was 6.78 µg/mL and the MPI [8] was 90. For the same substance, the IC50 [9] was > 50 µg/mL, the IC80 [9] was > 50 µg/mL and the MPI [9] was 30. For the same substance, the IC50 [10] was 0.508 µg/mL, the IC80 [10] was 1.82 µg/mL and the MPI [10] was 100. For the same substance, the IC50 [11] was > 50 µg/mL, the IC80 [11] was > 50 µg/mL and the MPI [11] was 10.
For N49P19 (antibody), the IC50 [1] was > 50 µg/mL, the IC80 [1] was > 50 µg/mL and the MPI [1] was 7. The IC50 [2] was > 50 µg/mL, the IC80 [2] was > 50 µg/mL and the MPI [2] was 0. For the same substance, the IC50 [3] was > 50 µg/mL, the IC80 [3] was > 50 µg/mL and the MPI [3] was 7. The IC50 [4] was 0.634 µg/mL, the IC80 [4] was 2.73 µg/mL and the MPI [4] was 100. The IC50 [5] was 7 µg/mL, the IC80 [5] was > 50 µg/mL and the MPI [5] was 80. It also gave an IC50 [6] of 0.661 µg/mL, an IC80 [6] of 3.09 µg/mL and an MPI [6] of 100. For the same substance, the IC50 [7] was 3.23 µg/mL, the IC80 [7] was 19 µg/mL and the MPI [7] was 93. For the same substance, the IC50 [8] was > 50 µg/mL, the IC80 [8] was > 50 µg/mL and the MPI [8] was 32. The IC50 [9] was 11.2 µg/mL, the IC80 [9] was > 50 µg/mL and the MPI [9] was 63. It also gave an IC50 [10] of 0.661 µg/mL, an IC80 [10] of 3 µg/mL and an MPI [10] of 100. For the same substance, the IC50 [11] was > 50 µg/mL, the IC80 [11] was > 50 µg/mL and the MPI [11] was 14.
For N49P9 (antibody), the IC50 [1] was > 50 µg/mL, the IC80 [1] was > 50 µg/mL and the MPI [1] was 23. The IC50 [2] was 17.6 µg/mL, the IC80 [2] was > 50 µg/mL and the MPI [2] was 55. For the same substance, the IC50 [3] was > 50 µg/mL, the IC80 [3] was > 50 µg/mL and the MPI [3] was 25. The IC50 [4] was 0.135 µg/mL, the IC80 [4] was 0.812 µg/mL and the MPI [4] was 100. For the same substance, the IC50 [5] was 0.031 µg/mL, the IC80 [5] was 0.134 µg/mL and the MPI [5] was 100. The IC50 [6] was 0.175 µg/mL, the IC80 [6] was 0.751 µg/mL and the MPI [6] was 100. For the same substance, the IC50 [7] was 0.136 µg/mL, the IC80 [7] was 0.485 µg/mL and the MPI [7] was 100. It also gave an IC50 [8] of 0.089 µg/mL, an IC80 [8] of 0.777 µg/mL and an MPI [8] of 95. The IC50 [9] was > 50 µg/mL, the IC80 [9] was > 50 µg/mL and the MPI [9] was 49. It also gave an IC50 [10] of 0.216 µg/mL, an IC80 [10] of 0.821 µg/mL and an MPI [10] of 100. The IC50 [11] was 46.7 µg/mL, the IC80 [11] was > 50 µg/mL and the MPI [11] was 51.
With N49P7.2 (antibody) the IC50 [12] was 0.085 µg/mL, the IC80 [12] was 0.237 µg/mL and the MPI [12] was 100. The IC50 [13] was 0.065 µg/mL, the IC80 [13] was 0.321 µg/mL and the MPI [13] was 99. It also gave an IC50 [14] of 0.29 µg/mL, an IC80 [14] of 1.08 µg/mL and an MPI [14] of 100. For the same substance, the IC50 [15] was 0.186 µg/mL, the IC80 [15] was 0.966 µg/mL and the MPI [15] was 100. For the same substance, the IC50 [16] was 0.162 µg/mL, the IC80 [16] was 2.49 µg/mL and the MPI [16] was 95. The IC50 [17] was 0.223 µg/mL, the IC80 [17] was 1.37 µg/mL and the MPI [17] was 100. It also gave an IC50 [18] of 0.812 µg/mL, an IC80 [18] of 2.87 µg/mL and an MPI [18] of 100. For the same substance, the IC50 [19] was 0.477 µg/mL, the IC80 [19] was 1.73 µg/mL and the MPI [19] was 100. The IC50 [20] was 0.052 µg/mL, the IC80 [20] was 0.15 µg/mL and the MPI [20] was 100. It also gave an IC50 [21] of 0.018 µg/mL, an IC80 [21] of 0.08 µg/mL and an MPI [21] of 100. For the same substance, the IC50 [22] was 0.821 µg/mL, the IC80 [22] was 2.81 µg/mL and the MPI [22] was 100. For the same substance, the IC50 [23] was 0.03 µg/mL, the IC80 [23] was 0.088 µg/mL and the MPI [23] was 100. It also gave an IC50 [24] of 0.326 µg/mL, an IC80 [24] of 1.14 µg/mL and an MPI [24] of 100. For the same substance, the IC50 [25] was 0.033 µg/mL, the IC80 [25] was 0.129 µg/mL and the MPI [25] was 100. It also gave an IC50 [26] of 0.06 µg/mL, an IC80 [26] of 0.285 µg/mL and an MPI [26] of 100. It also gave an IC50 [27] of 0.177 µg/mL, an IC80 [27] of 2.5 µg/mL and an MPI [27] of 96.
N49P18.1 (antibody) was tested, and the IC50 [12] was 2.8 µg/mL, the IC80 [12] was 9.66 µg/mL and the MPI [12] was 99. The IC50 [13] was 26.6 µg/mL, the IC80 [13] was > 50 µg/mL and the MPI [13] was 69. It also gave an IC50 [14] of 6.52 µg/mL, an IC80 [14] of 21.3 µg/mL and an MPI [14] of 92. For the same substance, the IC50 [15] was 8.31 µg/mL, the IC80 [15] was 33.3 µg/mL and the MPI [15] was 88. For the same substance, the IC50 [16] was 5.14 µg/mL, the IC80 [16] was 33.1 µg/mL and the MPI [16] was 88. For the same substance, the IC50 [17] was 12.5 µg/mL, the IC80 [17] was 49.8 µg/mL and the MPI [17] was 84. For the same substance, the IC50 [18] was 35.2 µg/mL, the IC80 [18] was > 50 µg/mL and the MPI [18] was 60. The IC50 [19] was 1.3 µg/mL, the IC80 [19] was 4.51 µg/mL and the MPI [19] was 99. It also gave an IC50 [20] of 4.27 µg/mL, an IC80 [20] of 15.5 µg/mL and an MPI [20] of 98. It also gave an IC50 [21] of 4.08 µg/mL, an IC80 [21] of 30.1 µg/mL and an MPI [21] of 89. For the same substance, the IC50 [22] was > 50 µg/mL, the IC80 [22] was > 50 µg/mL and the MPI [22] was 37. For the same substance, the IC50 [23] was 2.46 µg/mL, the IC80 [23] was 6.65 µg/mL and the MPI [23] was 100. The IC50 [24] was 17.3 µg/mL, the IC80 [24] was > 50 µg/mL and the MPI [24] was 79. For the same substance, the IC50 [25] was 2.34 µg/mL, the IC80 [25] was 9.64 µg/mL and the MPI [25] was 99. For the same substance, the IC50 [26] was 16.1 µg/mL, the IC80 [26] was > 50 µg/mL and the MPI [26] was 79. For the same substance, the IC50 [27] was 10.9 µg/mL, the IC80 [27] was > 50 µg/mL and the MPI [27] was 79.
